tested on: Escherichia coli TOP10; experiment: shrunken log2 fold change of peptide-encoding DNA abundance (4.5 h post-induction vs induction); higher = less antimicrobial activity (less host growth inhibition); details: time post-induction: 4.5 h; library: site-saturation at positions 5, 18, 19, 20
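Also: peptides expressed intracellularly from a pBAD plasmid library in pooled LB shake-flask culture, induced with 0.3% L-arabinose, DNA abundance read by NGS, three biological replicates, DESeq2 with apeglm shrinkage.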

Sequence	shrunken log2 fold change
RRIRQRPPRLPRPRPRPLSEPRP	0.0232
RRIRFRPPRLPRPRPRPNFTPRP	-0.0305
RRIRLRPPRLPRPRPRPHYQPRP	-0.361
RRIRERPPRLPRPRPRPIKGPRP	-0.0123
RRIRVRPPRLPRPRPRPTQNPRP	0.693
RRIRRRPPRLPRPRPRPFIKPRP	-0.368
RRIRCRPPRLPRPRPRPSTQPRP	-0.495
RRIRARPPRLPRPRPRPGQFPRP	0.109
RRIRVRPPRLPRPRPRPRIFPRP	0.137
RRIRNRPPRLPRPRPRPFMMPRP	-0.181
RRIRVRPPRLPRPRPRPSSNPRP	-0.375
RRIRSRPPRLPRPRPRPIRSPRP	0.0127
RRIRDRPPRLPRPRPRPIDDPRP	0.224
RRIRWRPPRLPRPRPRPVQMPRP	0.159
RRIRYRPPRLPRPRPRPNHFPRP	-0.0628
RRIRFRPPRLPRPRPRPHAKPRP	0.229
RRIRDRPPRLPRPRPRPKRFPRP	-0.017
RRIRRRPPRLPRPRPRPYCHPRP	-0.792
RRIRMRPPRLPRPRPRPGDAPRP	0.853
RRIRNRPPRLPRPRPRPLEQPRP	-0.166
RRIRNRPPRLPRPRPRPEYDPRP	-0.0369
RRIRGRPPRLPRPRPRPNTPPRP	0.237
RRIRHRPPRLPRPRPRPKARPRP	-0.00317
RRIRVRPPRLPRPRPRPSPIPRP	-0.324
RRIRYRPPRLPRPRPRPFFGPRP	-0.225

Sequence	shrunken log2 fold change
RRIRKRPPRLPRPRPRPCASPRP	0.0419
RRIRSRPPRLPRPRPRPPNDPRP	-0.0183
RRIRTRPPRLPRPRPRPSNEPRP	-0.34
RRIRTRPPRLPRPRPRPMAPPRP	0.294
RRIRDRPPRLPRPRPRPPYEPRP	-0.0831
RRIRYRPPRLPRPRPRPLWEPRP	-0.369
RRIRWRPPRLPRPRPRPELSPRP	0.101
RRIRLRPPRLPRPRPRPPGEPRP	0.196
RRIRARPPRLPRPRPRPHRTPRP	-0.115
RRIRHRPPRLPRPRPRPLGNPRP	0.017
RRIRPRPPRLPRPRPRPAVFPRP	0.373
RRIRRRPPRLPRPRPRPPIMPRP	-0.0528
RRIRYRPPRLPRPRPRPSFSPRP	-0.626
RRIRHRPPRLPRPRPRPRETPRP	0.0714
RRIRCRPPRLPRPRPRPMGKPRP	0.0173
RRIRERPPRLPRPRPRPAYVPRP	-0.859
RRIRTRPPRLPRPRPRPGEWPRP	0.0179
RRIRGRPPRLPRPRPRPYHWPRP	-0.407
RRIRQRPPRLPRPRPRPHYSPRP	-0.0998
RRIRHRPPRLPRPRPRPCGWPRP	0.353
RRIRMRPPRLPRPRPRPICIPRP	0.0141
RRIRIRPPRLPRPRPRPFLLPRP	-0.563
RRIRCRPPRLPRPRPRPVNIPRP	-0.971
RRIRNRPPRLPRPRPRPYMPPRP	-0.0173
RRIRQRPPRLPRPRPRPPLDPRP	0.685

Sequence	shrunken log2 fold change
RRIRGRPPRLPRPRPRPWWRPRP	0.626
RRIRPRPPRLPRPRPRPICMPRP	-0.343
RRIRSRPPRLPRPRPRPNFFPRP	0.179
RRIRWRPPRLPRPRPRPAPCPRP	0.322
RRIRIRPPRLPRPRPRPRAAPRP	0.458
RRIRRRPPRLPRPRPRPPVYPRP	0.32
RRIRVRPPRLPRPRPRPRSLPRP	-0.116
RRIRLRPPRLPRPRPRPHKQPRP	-0.0935
RRIRERPPRLPRPRPRPWWPPRP	-0.155
RRIRPRPPRLPRPRPRPRYTPRP	-0.266
RRIRIRPPRLPRPRPRPFCCPRP	-0.205
RRIRMRPPRLPRPRPRPMRYPRP	-0.0558
RRIRSRPPRLPRPRPRPANMPRP	-0.289
RRIRVRPPRLPRPRPRPCSPPRP	-0.137
RRIRCRPPRLPRPRPRPSCFPRP	-0.205
RRIRLRPPRLPRPRPRPQCFPRP	-0.0127
RRIRLRPPRLPRPRPRPRMSPRP	-1
RRIRKRPPRLPRPRPRPNPQPRP	0.463
RRIRQRPPRLPRPRPRPQYHPRP	-0.609
RRIRWRPPRLPRPRPRPICPPRP	-0.0872
RRIRWRPPRLPRPRPRPGIQPRP	0.468
RRIRYRPPRLPRPRPRPWHEPRP	-0.01
RRIRPRPPRLPRPRPRPWKCPRP	0.0176
RRIRFRPPRLPRPRPRPKNWPRP	0.31
RRIRCRPPRLPRPRPRPWWVPRP	-0.208
